Literature values, collected in article PMC10027511, “Disordered proteins mitigate the temperature dependence of site-specific binding free energies” (The Journal of Biological Chemistry, 2023).

Experiments:
[1] = target: Sos site 4 peptide site 4 peptide (Drosophila melanogaster) (UniProt P26675); assay: 19F NMR lineshape analysis, 5 °C
[2] = target: Sos site 4 peptide site 4 peptide (Drosophila melanogaster) (UniProt P26675); assay: 19F NMR lineshape analysis, 25 °C
[3] = target: Sos site 4 peptide site 4 peptide (Drosophila melanogaster) (UniProt P26675); assay: 19F NMR lineshape analysis, 15 °C
[4] = target: Sos site 4 peptide site 4 peptide (Drosophila melanogaster) (UniProt P26675); assay: 19F NMR lineshape analysis, 35 °C
[5] = target: Sos site 4 peptide site 4 peptide (Drosophila melanogaster) (UniProt P26675); assay: 19F NMR lineshape analysis, 45 °C

In the case of “Drk N-terminal SH3 domain N-terminal SH3 (from UniProt Q08012)”, the Kd [1] is given as 20 µM, the Kd [2] is given as 60 µM and the Kd [3] is given as 40 µM. For the same substance, the Kd [4] was 110 µM and the Kd [5] was 210 µM.
